Laboratory results: patent US11066655B2, “RNA polymerase, methods of purification and methods of use” (President and Fellows of Harvard College, priority 2013, dated 2021)

Experiments:
Format in all cases: biochemical
[1] = tested on: DNA templates with Syn5 promoter; experiment: Gel assay of transcription products with MgCl2, FeCl2 or MnCl2 as cofactor
Description: FIG. 6 depicts a comparison of Syn5 RNAP transcription products in the presence of MgCl2, FeCl2 or MnCl2 on denaturing gels. Reactions contained 200 µM ATP, GTP, UTP and 10 µM[…]-^32P]CTP, 50 nM Syn5 RNAP, DNA templates (1 µM template as shown in FIG. 3A for 71 nt runoff transcript, 4 nM template 3 as shown in FIG. 3C for 225 nt product, or 1 µM template 1 as shown in FIG. 3B for 37 nt runoff transcript).
For the gel assay results shown in FIGS. 1, 2, 3, and 13, reaction mixtures (20 μl) contained 40 mM Tris-HCl (pH 7.9), 6 mM MgCl2, 2 mM spermidine, 10 mM DTT, 200 µM[…]P, GTP and UTP, 10 µM [[…]-^32P]CTP, 1.5 U/µl RNaseOUT™ recombinant ribonuclease inhibitor (Invitrogen), 100 nM Syn5 or T7 RNAP, and DNA templates as described in the figure legends (either 2 nM phage genomic DNA, 4 nM purified PCR products, or 1 µM synthetic dsDNA fragments). Reaction mixtures were incubated at 24° C. for 30 min. The reaction mixtures described in FIG. 6 contained 40 mM Tris-HCl (pH 8.0), 200 µM[…]P, GTP and UTP, 10 µM [[…]-^32P]CTP, 1.5 U/µl RNaseOUT™, 50 nM Syn5 RNAP, DNA templates, and various amounts of MgCl2, FeCl2, MnCl2 and KCl as described in the figure legends. After 30 min incubations at 24° C., one unit of RQ1 RNase-Free DNase (Promega) was added to each reaction mixture and incubated for an additional 20 min at 37° C. to remove the DNA templates. Reactions were then terminated by the addition of 8 µl of loading dye containing 95% formamide and 40 mM EDTA. Samples were then heated at 90° C. for 1 min and loaded onto either 10% or 25% TBE-Urea denaturing gels. After electrophoresis, gels were dried and analyzed using a Fuji BAS 1000 Bioimaging Analyzer.

[2] = tested on: pUC19-S5P or pUC19-T7P; experiment: Processivity gel assay, rolling-circle synthesis on single-promoter plasmids
Description: FIGS. 9A-9H depict the processivity of Syn5 and T7 RNA polymerases. A) Agarose gel showing RNA synthesis by previously purified Syn5 RNA polymerase, newly purified Syn5 RNA polymerase with the improved procedure, and T7 RNA polymerase on a plasmid template containing a single cognate promoter (as shown in the schematic). B) Product as shown in A) by S5N2 RNA polymerase was incubated with 1 U/[…]1 RNase I or DNase I to confirm its RNA nature. C) Effect of increasing KCl concentration on Syn5 RNA polymerase transcription. D) Products by Syn5 and T7 RNAP in a rolling-circle manner were analyzed at denaturing condition. E) Same assay as D) except that the template plasmids were linearized as shown in the schematic. F) & G) Decreasing the concentration of T7 (F) and Syn5 (G) RNA polymerase reduced the abortive products due to clash of RNA polymerases at promoter region. H) RNA polymerase promoter distribution on coliphage T7 and cyanophage Syn5 genomes.
DNA templates for transcription assays were either plasmids or dsDNA fragments made of synthesized oligonucleotides. To test the processivity of Syn5 and T7 RNAP, a single Syn5 or T7 promoter plus 3 guanosine downstream of the promoter (Syn5 5′-ATTGGGCACCCGTAAGGG-3′ (SEQ ID NO:1) or T7 5′-[…]-3′) (SEQ ID NO:2) was inserted between the BamHI and XbaI sites of plasmid pUC19 to form pUC19-S5P or pUC19-T7P. The templates for run-off tRNA^Arg synthesis were formed by annealing of two complementary synthesized DNA oligos of which sequences are as following:
For the results shown in FIG. 9, reaction mixtures (10 μl) contained 40 mM Tris-HCl pH 8.0, 6 mM MgCl2, 2 mM spermidine, 10 mM DTT, 600 µM[…]P, GTP, CTP, and UTP, 1.5 U/µl RNaseOUT™ recombinant ribonuclease inhibitor, 0.04 U/µl yeast inorganic pyrophosphatase, 10 nM pUC19-Syn5P3G or pUC19-T7P3G, 10 nM Syn5 or T7 RNAP and various amount of KCl as noted in the figure or described in the figure legend. After 1 hr incubations at RT, one unit of DNase I was added to each reaction mixture and incubated for an additional 15 min at 37° C. to remove the DNA templates. For FIGS. 8A-8C, 2 µl reaction mixture was directly mixed with native loading dye and loaded onto 1.6% TAE agarose gel. For FIGS. 8D-8F, RNA products were purified with RNA Clean & Concentrator™-5 kit into a final solution of 10 µl and 5 µl each was mixed with 5 µl denaturing RNA loading dye (New England Biolabs). Samples were then heated at 65° C. for 5 min and loaded onto 1.6% TAE agarose gel. RNA products were visualized by ethidium bromide staining.

[3] = tested on: template for a 37 nt RNA or a 2.7 knt RNA; experiment: 2′-F-dNTP incorporation with mixed cofactor Mg2+/Mn2+; conditions: mixed cofactors Mg2+/Mn2+
Excerpt: FIG. 25A depicts a gel showing that WT Syn5 polymerase incorporates 2′-F-C/UTP and all four 2′-F′dNTP in the presence of mixed cofactor Mg^2+/Mn^2+.
FIG. 25B depicts a gel comparing 2′-F′dNTP incorporation using Mg^2+ versus the mixed cofactor.
According to certain aspects of the invention, co-factors such as Mg^+2 and Mn^+2 are used to reduce discrimination against 2′-F-dNTP of wild-type Syn5 RNA polymerase. The optimum cofactor concentration of Mg^2+ or Mn^2+ is similar for Syn5 RNA polymerase, and Mg^2+ and Mn^2+ are provided as mixed cofactors for the Syn5 RNA polymerase. Without wishing to be bound by scientific theory, a substantial proportion of Syn5 RNA polymerase in the reaction may utilize one Mg^2+ and one Mn^2+ in their active sites for catalysis (based on the two-metal-ion mechanism for polymerase catalysis) so that both high overall yield and low discrimination against 2′-F-dNTP can be achieved with the methods described herein.
The reaction components were incubated at 37° C. for 4 hrs. 0.4 µl of the reaction mixture were loaded onto 10% TBE gel or 2% agarose gel and stained with ethidium bromide. […] See FIG. 25A lane 5 vs lane 1; FIG. 25B lane 3 vs lane 1). […]

B1: Syn5 RNAP: single subunit DNA-dependent RNA polymerase from marine cyanophage Syn5, amino acid sequence SEQ ID NO:23 (protein)
chain: MSFDLIARQLQRETEAAELARKRLQDARREANERSYASSNIESRKAIATFLDPIAQRIGERLFTLRRGTGAVDAAEVYKHLKNADHHHLALITMKTALDVLGKDPEPQIQQLTTAIGRNIQLELRLTYYAEENPELYKQASRFFHAGTGTRQKATVIKLKFNREGIEWDQWSRVTCHKVGQWLMLAMADVTGWIERATDRTSGGRKTKTRICYSREFLQHRDTILAAAEQLAFCQWPMLCPPIEWSNDHNGGYLSEQIRRVNPLIRKTGPLGTRKQGDIPLAMLNNLQGQAYKVNPEVLDIANHCYESNVTVGKFIRHAPLPVPPSPGEDCTEDQLTAYKRARREAEDFNAQISQKNWRTTEVMYVARKYADEASFWMPASFDYRGRVYFLNTALNPQGTDFDKALLYFAEEGPVNEWWLSFHVATTYGLDKETMVNRVQWARDNHELIDRIASDPVRHTEWHDADEPWCFLAACLEYKACVIDGTKQTSGLPIGIDATCSGLQHLAAMTRCGRTAALVNVTPTDKPADAYKTVAQASLKHLPKEQHEWITRKVTKRPVMCTPYGVTMSSARGYIRDQLVKDGHKEDLRSPGVLNGIVKAIFNEAIPEVIPGPVQVMAWLKRSAGQIIDRGDSTITWTTPSGFEVVQDLKKSKTYEVKTRIMGGARIKLQVGDGFTDEPDRDHHKSALAPNVVHSNDASLLHLTFAFWDKPFTVIHDCVLGRSCDMDQMGSDIRLHFAEMYKADVMQDWADQVGVELPVDLIKNTLDIDSVNQSLYFFS
modifications: Amino acid sequence of a cyanophage Syn5 RNAP
Q: For B1, which “transcription with ferrous as cofactor” value ([1]; 2 mM FeCl2) is on record?
A: Its value is “produce a 71 nt runoff transcript identical to that produced in the presence of MgCl2”.

Q: What about the “longer transcripts (e.g. 225 nt) in the presence of iron” value ([1]; FeCl2) of the same molecule?
A: Its value is “did not produce longer transcripts”.

Q: What about the “maximum yield of short runoff products” value ([1]; manganese 0.25 to 1 mM versus magnesium) of the same molecule?
A: The value was “higher in the presence of manganese”.

Q: And the “N+1 runoff product” value ([1]; manganese versus magnesium)?
A: The value was “significantly higher with manganese than that with magnesium”.

Q: What about the “efficiency of iron as a cofactor” value ([1]; versus magnesium) of the same molecule?
A: The value was “several times less than that of magnesium”.

Q: What about the apparent processivity [2] of the same molecule?
A: The apparent processivity was “over 30 kilo nucleotides”.

Q: And the processivity [2]?
A: Its processivity is “greater than 30,000 nt”.

Q: What about the “length approached by some products” value ([2]; low enzyme concentration) of the same molecule?
A: Its value is ~30 kilo nt.

Q: What about the “length of most products” value ([2]; low enzyme concentration) of the same molecule?
A: The value was “over 9 kilo nt”.

Q: What about the “RNA with all four 2′-F-dNMPs” value [3] of the same molecule?
A: Its value is “substantial yield”.

Q: And the “yield of 2′-F-dCMP/2′-F-dUMP incorporated RNA” value [3]?
A: Its value is “better yield”.
